The text below walks through data of publication doi:10.1101/2025.07.27.667015.

Assay [1] concerns the target Methionine γ-lyase from Yarrowia lipolytica (yMGL) (Yarrowia lipolytica). In words: crystal structure.
Assay [2] shares this target. In words: SEC + other: dynamic light scattering.
Assay [3] has as its target yMGL-ΔCTD (yMGL with the C-terminal residues 253-380 deleted) (Yarrowia lipolytica). The experiment in a line: SEC + other: dynamic light scattering.

“Methionine γ-lyase from Yarrowia lipolytica (yMGL) (enzyme)”: the stoichiometry N in assay [1] turned out to be 2; in assay [2] it was 4.

In the case of “yMGL-ΔCTD (yMGL with the C-terminal residues 253-380 deleted) (domain or fragment)”, in assay [3], the stoichiometry N was determined as 6.

As a reminder, the stoichiometry N is the number of molecules, sites or subunits per partner or assembly.
